These results are taken from IntAct's records for PubMed 24268649.

In this assay the target is ncor2_human NCOR2 (UniProt Q9Y618).
ncor2_human NCOR2, sequence (Q9Y618 whole entry): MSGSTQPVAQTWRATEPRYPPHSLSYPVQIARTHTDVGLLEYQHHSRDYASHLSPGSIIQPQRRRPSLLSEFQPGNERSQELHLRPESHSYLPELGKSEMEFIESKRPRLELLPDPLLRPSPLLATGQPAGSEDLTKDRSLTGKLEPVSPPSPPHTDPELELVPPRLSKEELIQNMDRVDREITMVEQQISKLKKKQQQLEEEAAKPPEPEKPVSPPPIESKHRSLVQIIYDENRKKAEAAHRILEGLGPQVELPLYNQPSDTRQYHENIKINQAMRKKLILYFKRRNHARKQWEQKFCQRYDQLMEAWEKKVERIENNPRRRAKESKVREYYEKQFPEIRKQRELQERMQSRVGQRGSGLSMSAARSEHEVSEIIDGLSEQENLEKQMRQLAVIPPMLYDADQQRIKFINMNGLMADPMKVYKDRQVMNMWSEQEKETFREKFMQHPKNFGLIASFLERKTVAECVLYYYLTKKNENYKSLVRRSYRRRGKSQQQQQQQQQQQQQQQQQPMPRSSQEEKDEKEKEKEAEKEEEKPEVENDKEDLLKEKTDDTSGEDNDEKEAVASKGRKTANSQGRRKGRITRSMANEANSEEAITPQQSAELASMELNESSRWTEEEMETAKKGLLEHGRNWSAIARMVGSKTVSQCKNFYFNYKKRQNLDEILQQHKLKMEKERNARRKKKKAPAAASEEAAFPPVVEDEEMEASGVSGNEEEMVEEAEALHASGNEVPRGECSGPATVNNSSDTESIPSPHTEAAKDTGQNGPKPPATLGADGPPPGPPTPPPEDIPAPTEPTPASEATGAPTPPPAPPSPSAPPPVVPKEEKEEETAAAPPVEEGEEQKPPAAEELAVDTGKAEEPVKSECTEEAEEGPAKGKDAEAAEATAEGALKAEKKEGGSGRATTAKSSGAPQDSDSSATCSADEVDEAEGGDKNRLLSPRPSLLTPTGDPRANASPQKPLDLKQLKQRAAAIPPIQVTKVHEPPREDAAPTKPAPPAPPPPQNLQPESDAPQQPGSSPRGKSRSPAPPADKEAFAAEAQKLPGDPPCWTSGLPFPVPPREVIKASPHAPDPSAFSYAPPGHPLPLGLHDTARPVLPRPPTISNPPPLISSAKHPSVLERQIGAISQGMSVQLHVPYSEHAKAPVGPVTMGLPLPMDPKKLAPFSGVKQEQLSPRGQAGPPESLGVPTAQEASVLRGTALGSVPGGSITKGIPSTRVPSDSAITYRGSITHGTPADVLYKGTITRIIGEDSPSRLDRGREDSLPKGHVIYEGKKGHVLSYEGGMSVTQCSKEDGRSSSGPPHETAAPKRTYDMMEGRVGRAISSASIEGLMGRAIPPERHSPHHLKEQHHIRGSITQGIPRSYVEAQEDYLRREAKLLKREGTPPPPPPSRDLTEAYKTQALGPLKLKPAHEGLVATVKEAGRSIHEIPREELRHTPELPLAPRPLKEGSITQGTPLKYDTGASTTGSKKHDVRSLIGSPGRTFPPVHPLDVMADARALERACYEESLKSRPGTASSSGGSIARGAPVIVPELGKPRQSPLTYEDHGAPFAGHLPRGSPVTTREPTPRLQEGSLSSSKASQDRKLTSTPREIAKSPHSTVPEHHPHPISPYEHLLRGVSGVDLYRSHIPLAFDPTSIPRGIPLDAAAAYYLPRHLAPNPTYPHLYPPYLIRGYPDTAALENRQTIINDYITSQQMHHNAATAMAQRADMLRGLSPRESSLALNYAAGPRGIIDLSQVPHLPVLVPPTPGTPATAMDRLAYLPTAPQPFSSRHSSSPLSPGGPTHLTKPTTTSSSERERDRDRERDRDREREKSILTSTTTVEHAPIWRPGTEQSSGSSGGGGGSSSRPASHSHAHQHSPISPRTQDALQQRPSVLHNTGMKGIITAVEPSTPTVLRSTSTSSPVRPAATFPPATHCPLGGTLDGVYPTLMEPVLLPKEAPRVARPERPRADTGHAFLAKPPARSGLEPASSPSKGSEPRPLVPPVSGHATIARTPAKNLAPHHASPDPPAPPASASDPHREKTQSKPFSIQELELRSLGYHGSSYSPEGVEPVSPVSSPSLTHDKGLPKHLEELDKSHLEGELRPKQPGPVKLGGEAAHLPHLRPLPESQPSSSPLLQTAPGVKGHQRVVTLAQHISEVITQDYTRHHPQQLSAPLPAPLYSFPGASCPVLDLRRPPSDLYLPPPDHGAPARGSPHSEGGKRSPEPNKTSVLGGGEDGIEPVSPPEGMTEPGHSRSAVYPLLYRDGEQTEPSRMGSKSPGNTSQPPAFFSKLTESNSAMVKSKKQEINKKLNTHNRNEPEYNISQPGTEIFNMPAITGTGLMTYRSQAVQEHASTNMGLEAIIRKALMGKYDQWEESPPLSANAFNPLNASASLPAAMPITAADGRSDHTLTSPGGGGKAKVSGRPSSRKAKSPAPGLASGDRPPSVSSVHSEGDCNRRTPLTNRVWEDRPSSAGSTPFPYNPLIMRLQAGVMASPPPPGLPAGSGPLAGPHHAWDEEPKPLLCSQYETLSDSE

With “Msx2-interacting protein (Homo sapiens), Q96T58 K3516A”, the “effect of a mutation on the interaction” value is “disrupting interaction strength”.

Turning to “Msx2-interacting protein (Homo sapiens), Q96T58 K3606A”, the “effect of a mutation on the interaction” value is recorded as “disrupting interaction strength”.

As to “Msx2-interacting protein (Homo sapiens), Q96T58 L3515A”, the “effect of a mutation on the interaction” value is reported as “decreasing interaction strength”.

With “Msx2-interacting protein (Homo sapiens), Q96T58 M3553A”, the “effect of a mutation on the interaction” value is “decreasing interaction strength”.

Take “Msx2-interacting protein (Homo sapiens), Q96T58 Q3551A”: the “effect of a mutation on the interaction” value is “decreasing interaction strength”.

“Msx2-interacting protein (Homo sapiens), Q96T58 R3548A”: the “effect of a mutation on the interaction” value is “decreasing interaction strength”.

“Msx2-interacting protein (Homo sapiens), Q96T58 R3552A”: the “effect of a mutation on the interaction” value is on record as “disrupting interaction strength”.

With “Msx2-interacting protein (Homo sapiens), Q96T58 R3552K”, the “effect of a mutation on the interaction” value is “decreasing interaction strength”.

For the substance “Msx2-interacting protein (Homo sapiens), Q96T58 R3554A”, the “effect of a mutation on the interaction” value is “decreasing interaction strength”.

With “Msx2-interacting protein (Homo sapiens), Q96T58 Y3602A”, the “effect of a mutation on the interaction” value is given as “decreasing interaction strength”.
